These results are taken from patent publication US10119980B2, “Method for detection of basic peptide and reagent for detection of basic peptide” (SYSMEX CORPORATION, priority 2009, dated 2018).

Ends that are not written are not given here.

For orientation: Kd means the equilibrium constant for the complex coming apart. Low readings indicate a tighter complex, high ones a looser complex. The Hill coefficient is the slope factor of the fitted curve.

One assay addresses T1, heat-denatured BSA (Bos taurus, UniProt P02769).
T1 construct: purchased Sigma-Aldrich
Kind of assay: Turbidity (OD550) measurement and Hill plot analysis of peptides mixed with heat-denatured BSA reagent. As to conditions: for change in OD550 with increasing peptide concentration: peptide mixed with heat-denatured BSA, final 0.2 w/v %; for Hill coefficient n: Example 5, peptide 0 to 80 μM. It counts as binding, bovine. The method, then: A partial dynorphin A peptide consisting of amino acids of positions 1 to 13 of dynorphin A (SEQ ID NO: 2; Peptide Institute, Inc.) was used as the basic peptide of interest. A neutral peptide, α-endorphin (SEQ ID NO: 3; Peptide Institute, Inc.) was also used as a comparative peptide of interest. These peptides were dissolved in ultrapure water to prepare samples containing respective peptides (1.0 mg/ml).
The denatured BSA solution prepared in the above (1) (50 μl) was mixed with the respective samples prepared in (2) followed by addition of ultrapure water to prepare a total volume of 250 μl of mixed solutions containing respective peptides. In the preparation, the sample was mixed so as to obtain a final concentration of the respective peptides in the mixed solutions of 0 to 150 μM.
The thus-prepared mixed solutions were measured for OD550 in the similar manner as Example 1.
A fragment of kininogen (positions 439 to 457 (SEQ ID NO: 4); synthesized at Biologica Co.) and a fragment of ITIH4 (positions 611 to 642 (SEQ ID NO: 5); synthesized at Biologica Co.) which were known as cancer metastasis markers were used as basic peptides of interest. These peptides were dissolved in ultrapure water to prepare samples containing respective peptides (1.0 mg/ml).
The denatured BSA solution prepared in the above (1) (50 μl) was mixed with the respective samples prepared in (2) followed by addition of ultrapure water to prepare a total volume of 250 μl of mixed solutions containing respective peptides. In the preparation, the sample was mixed so as to obtain a final concentration of the respective peptides in the mixed solutions of 0 to 80 μM.
The thus-prepared mixed solutions were measured for OD550 in the similar manner as Example 1. The Kd value and Hill coefficient were calculated for the respective samples.
Besides a basic peptide, to be studied for comparison, a neutral peptide Fibrinogen α (SEQ ID NO: 6; Biological Co.) and acidic peptides C3f (SEQ ID NO: 7; Biologica Co.) and Factor XIII (SEQ ID NO: 8; Biologica Co.) were prepared. These peptides were dissolved in ultrapure water to prepare samples containing respective peptides (1.0 mg/ml).
The denatured BSA solution prepared in the above (1) (50 μl) was mixed with the respective samples prepared in (2) followed by addition of ultrapure water to prepare a total volume of 250 μl of mixed solutions containing the respective peptides. In the preparation, the sample was mixed with the heat-denatured BSA solution so as to obtain a final concentration of the respective peptides in the mixed solutions of 0 to 80 μM.

In assay [1] the target is T2, partial ACTH peptide (positions 1 to 24 of ACTH) (Homo sapiens, UniProt P01189).
T2 construct: consisting of the amino acids of positions 1 to 24 of ACTH
Kind of assay: Turbidity (OD550) measurement and Hill plot analysis of albumin reagents mixed with partial ACTH peptide. Format: binding. As to conditions: for change in OD550 with increasing partial ACTH peptide concentration: albumin reagent mixed with partial ACTH peptide. How it is done:
BSA (Sigma-Aldrich) was dissolved in Milli-Q® water (Millipore) to prepare a BSA solution (1.0 w/v %). The BSA solution was divided into two and one was designated as a non-denatured BSA solution and the other was autoclaved at 110° C. for 15 minutes to obtain a heat-denatured BSA solution.
A partial ACTH peptide (Peptide Institute, Inc.) consisting of the amino acids of positions 1 to 24 of ACTH was used as the basic peptide of interest. The peptide was dissolved in ultrapure water to prepare a sample containing the basic peptide of interest (1.0 mg/ml).
The heat-denatured BSA solution prepared in the above (1) (50 μl) was mixed with the sample prepared in (2) followed by addition of ultrapure water to prepare a total volume of 250 μl of a mixed solution (final concentration of heat-denatured BSA: 0.2 w/v %). In this preparation, the sample was mixed so as to obtain a final concentration of the partial ACTH peptide in the mixed solution of 0 to 150 μM. A comparative mixed solution was also prepared in the similar manner except that the non-denatured BSA solution was used instead of the heat-denatured BSA solution.
The thus-prepared mixed solutions were measured for absorbance at the wavelength of 550 nm (OD550) in a spectrophotometer UV-2500PC (Shimadzu Corporation). The obtained results were subjected to Hill plot analysis with KaleidaGraph (HULINKS, Inc.) to calculate the values of Kd and the Hill coefficient of heat-denatured BSA and non-denatured BSA.
BSA (Sigma-Aldrich) was dissolved in Milli-Q® water (Millipore) to prepare a BSA solution (1.0 w/v %). The BSA solution was divided into five aliquots among which one was designated as a non-denatured BSA solution (heat denaturation period: 0 min) and the rest of four were heated in an autoclave at 110° C. for 5, 15, 60 and 120 min, respectively, to obtain heat-denatured BSA solutions.
The Kd value and Hill coefficient of BSA at respective heat denaturation periods were calculated. […]
The Kd value and Hill coefficient were calculated for the mixed solutions. […]

[2] abbreviates: Example 1, final BSA 0.2 w/v %, peptide 0 to 150 μM, OD550 Hill plot.
The mark [3] stands for this setting: Example 6, albumin autoclaved at 115° C. for 15 minutes, final 0.2 w/v %, peptide 0 to 80 μM.

T1 sequence (P02769 25-607): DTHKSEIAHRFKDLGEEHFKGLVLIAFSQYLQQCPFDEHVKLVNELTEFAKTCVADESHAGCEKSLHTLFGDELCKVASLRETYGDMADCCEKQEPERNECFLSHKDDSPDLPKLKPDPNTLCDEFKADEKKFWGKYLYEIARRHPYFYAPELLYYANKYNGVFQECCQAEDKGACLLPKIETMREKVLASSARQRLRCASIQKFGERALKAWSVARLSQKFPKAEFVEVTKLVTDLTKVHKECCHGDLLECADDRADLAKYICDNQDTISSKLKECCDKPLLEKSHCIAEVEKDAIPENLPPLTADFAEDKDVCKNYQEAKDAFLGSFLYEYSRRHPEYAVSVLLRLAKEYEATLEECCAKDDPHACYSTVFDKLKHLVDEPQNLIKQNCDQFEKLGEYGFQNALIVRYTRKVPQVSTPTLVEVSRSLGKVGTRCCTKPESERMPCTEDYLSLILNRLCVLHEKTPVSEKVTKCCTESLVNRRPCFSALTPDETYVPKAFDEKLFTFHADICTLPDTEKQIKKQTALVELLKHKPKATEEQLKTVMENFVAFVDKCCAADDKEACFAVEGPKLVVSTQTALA
T2 sequence (P01189 138-161): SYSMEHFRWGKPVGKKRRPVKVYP

“Factor XIII: acidic peptide Factor XIII (SEQ ID NO: 8) (AVPPNNSNAAEDDLPTVELQGVVPR; listed as Homo sapiens)”: the “change in OD550 with increasing peptide concentration” value with heat-denatured BSA was “no change in OD550”.

Regarding “C3f: acidic peptide C3f (SEQ ID NO: 7) (HWESASLL; listed as Homo sapiens)”, in the assay with heat-denatured BSA, the “change in OD550 with increasing peptide concentration” value is given as “no change in OD550”.

Regarding `CC[C@H](C)[C@H](NC(=O)[C@H](CCCNC(=N)N)NC(=O)[C@H](CCCNC(=N)N)NC(=O)[C@H](CC(C)C)NC(=O)[C@H](Cc1ccccc1)NC(=O)CNC(=O)CNC(=O)[C@@H](N)Cc1ccc(O)cc1)C(=O)N[C@@H](CCCNC(=N)N)C(=O)N1CCC[C@H]1C(=O)N[C@@H](CCCCN)C(=O)N[C@@H](CC(C)C)C(=O)N[C@@H](CCCCN)C(=O)O` [partial dynorphin A peptide], on heat-denatured BSA, binding was characterised by a dissociation constant (Kd) of 30 µM and the “change in OD550 with increasing peptide concentration” value was “increased in a concentration dependent manner”. Also, the Hill coefficient on heat-denatured BSA (Example 4, peptide 0 to 150 μM, OD550 Hill plot) was 8.

As for “GESRNRNVHSGSTFFKYYLQGAKIPKPEASFS [ITIH4 (611-642)]”, the Hill coefficient n on heat-denatured BSA (OD550 Hill plot) is 9. The “change in OD550 with increasing peptide concentration” value on heat-denatured BSA is “increased in a peptide concentration dependent manner”.

In turn, “HNLGHGHKHERDQGHGHQR [Kininogen (439-457)]” returned a Hill coefficient n at heat-denatured BSA (OD550 Hill plot) of 8. Moreover, the “change in OD550 with increasing peptide concentration” value on heat-denatured BSA is given as “increased”.

In the case of “α-endorphin (YGGFMTSEKSQTPLVT; listed as Homo sapiens)”, in the assay with heat-denatured BSA, the “change in OD550 with increasing peptide concentration” value is on record as “no change in OD550”.

Consider “Non-denatured BSA: BSA (Sigma-Aldrich) solution 1.0 w/v %, not heated; comparative reagent [reference compound]”, for which the Hill coefficient n in assay [1] (setting [2]) and in assay [1] (heat denaturation period 0 min) was 1 throughout. Moreover, the equilibrium dissociation constant (Kd) in assay [1] (setting [2]) and in assay [1] (heat denaturation period 0 min) was 290 µM each time. Further, the “change in OD550 with increasing partial ACTH peptide concentration” value in assay [1] is on record as “significant change in the value of OD550 was not observed”; in assay [1] (listed as BSA solution that was heat-denatured for 0 min) it was “not changed”.

Consider “Fibrinogen α: neutral peptide Fibrinogen α (SEQ ID NO: 6) (DEAGSEADHEGTHSTKRGHAKSRPV; listed as Homo sapiens)”, for which the “change in OD550 with increasing peptide concentration” value with heat-denatured BSA is “no change in OD550”.

B1: Heat-denatured OA: ovoalbumin solution (1.0 w/v %), pH 5 to 7, autoclaved at 115° C. for 15 minutes (protein)
chain: GSIGAASMEFCFDVFKELKVHHANENIFYCPIAIMSALAMVYLGAKDSTRTQINKVVRFDKLPGFGDSIEAQCGTSVNVHSSLRDILNQITKPNDVYSFSLASRLYAEERYPILPEYLQCVKELYRGGLEPINFQTAADQARELINSWVESQTNGIIRNVLQPSSVDSQTAMVLVNAIVFKGLWEKAFKDEDTQAMPFRVTEQESKPVQMMYQIGLFRVASMASEKMKILELPFASGTMSMLVLLPDEVSGLEQLESIINFEKLTEWTSSNVMEERKIKVYLPRMKMEEKYNLTSVLMAMGITDVFSSSANLSGISSAESLKISQAVHAAHAEINEAGREVVGSAEAGVDAASVSEEFRADHPFLFCIKHIATNAVLFFGRCVSP
For the molecule B1, the Hill coefficient n is given as 3 in assay [1] (setting [3]) and 11 in assay [1] (Example 6, albumin autoclaved at 115° C. for 15 minutes, final 0.2 w/v %, peptide 0 to 80 μM, listed as heat-denatured OA). In assay [1] (setting [3]), binding was characterised by a dissociation constant (Kd) of 67 µM. The “change in OD550 with increasing partial ACTH peptide concentration” value in assay [1] is reported as “increase in a manner dependent on the concentrations of the basic peptide”.
